Source: patent US20260258131A1 (ADAGENE PTE, published 2026)
Several values for one entry are separate records, joined by “and”; a condition that tells them apart may be missing. Equal values may be shown once.

T1: Recombinant human CTLA4-hisFc (human, UniProt P16410 36-161, limits assumed)
T1 construct: Coated on the ELISA plate; the whole UniProt entry is named; also called recombinant human CLTA4-hisFc; its antigen; not shown: his tag and Fc
T1 sequence (looked up): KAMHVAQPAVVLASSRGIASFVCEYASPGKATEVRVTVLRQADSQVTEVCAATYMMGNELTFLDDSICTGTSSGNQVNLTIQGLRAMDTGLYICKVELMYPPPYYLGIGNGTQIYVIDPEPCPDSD

T2: human CTLA4 expressed on cells (human, UniProt P16410 36-223)
T2 sequence (looked up): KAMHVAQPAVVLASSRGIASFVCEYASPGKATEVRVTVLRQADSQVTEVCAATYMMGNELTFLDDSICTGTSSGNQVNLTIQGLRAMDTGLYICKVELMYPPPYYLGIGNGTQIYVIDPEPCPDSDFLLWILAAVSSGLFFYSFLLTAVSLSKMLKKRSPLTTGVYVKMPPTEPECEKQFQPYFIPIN


Columns and labels:
[1] = molecular target: T1, Recombinant human CTLA4-hisFc; assay: ELISA, coated CTLA4-hisFc
Method: (§1) Recombinant human CTLA4-hisFc was diluted to 1 μg/mL in PBS and coated on a Maxisorp plate at 4° C. overnight. Plates were blocked with PBS supplemented with 3% non-fat milk at 37° C. for 1 hour. After washing, 100 µL of 3-fold serial dilutions of antibodies were added to each well. After incubation at 37° C. for 1 hour, plates were washed four times, and 100 μL HRP conjugated anti-human IgG (Fab specific) (1:6000 dilution) was added to each well. Plates were incubated at 37° C. for 1 hour, washed four times, and then 50 μL TMB substrate solution was added to each well, and the plate was incubated at room temperature. Absorbance at 450 nm was measured after the reactions were stopped with 50 μL H2SO4 per well. The EC50 was evaluated by fitting the ELISA data using the sigmoidal (four-parameter logistic equation) model of GraphPad Prism 6 software. Experiments for some activatable antibodies were performed twice or more, leading to two or more calculated masking efficiencies being obtained for each of these activatable antibodies.

[2] = molecular target: T2, human CTLA4 expressed on cells; assay: cell-based or functional assay
[3] = molecular target: T1, Recombinant human CTLA4-hisFc; assay: ELISA, coated CTLA4-hisFc, after MMP-9 cleavage
Method: as §1, with “Plates” for “Recombinant human CTLA4-hisFc was diluted to 1 μg/mL in PBS and coated on a Maxisorp plate at 4° C. overnight. Plates”
The purified activatable antibodies were treated with the proteases which recognize the cleavage sequences, and were then tested to determine whether removal of the masking peptide restored their activity. […] The reactions were carried out at 37° C. for 24 hours. […] The masking efficiency was then measured by ELISA as described above.

Row | Binder | EC50 [1] | further results
1 | TY24460 (antibody, human IgG1, kappa) heavy: not shown light: EVGSYSSCKAPYPYCKGSGGGPLGLAGGSDIQLTQSPSSLSASVGDRVTITCRASQSVRGRFLAWYQQKPGKAPKLLIYDASNRATGIPSRFSGSGSGTDFTLTISSLQPEDFATYYCQQSSSWPPTFGQGTKVEIKRTVAAPSVFIFPPSDEQLKSGTASVVCLLNNFYPREAKVQWKVDNALQSGNSQESVTEQDSKDSTYSLSSTLTLSKADYEKHKVYACEVTHQGLSSPVTKSFNRGEC | 339 nM | 
2 | TY24459 (antibody, human IgG1, kappa) heavy: not shown light: EVGSYSSCKAPYPYCKGSGRGPLGLAGGSDIQLTQSPSSLSASVGDRVTITCRASQSVRGRFLAWYQQKPGKAPKLLIYDASNRATGIPSRFSGSGSGTDFTLTISSLQPEDFATYYCQQSSSWPPTFGQGTKVEIKRTVAAPSVFIFPPSDEQLKSGTASVVCLLNNFYPREAKVQWKVDNALQSGNSQESVTEQDSKDSTYSLSSTLTLSKADYEKHKVYACEVTHQGLSSPVTKSFNRGEC | 209 nM | 
3 | TY24466 (antibody, human IgG1, kappa) heavy: not shown light: ETLCEPFATSVCRPSGGGPLGLAGGSDIQLTQSPSSLSASVGDRVTITCRASQSVRGRFLAWYQQKPGKAPKLLIYDASNRATGIPSRFSGSGSGTDFTLTISSLQPEDFATYYCQQSSSWPPTFGQGTKVEIKRTVAAPSVFIFPPSDEQLKSGTASVVCLLNNFYPREAKVQWKVDNALQSGNSQESVTEQDSKDSTYSLSSTLTLSKADYEKHKVYACEVTHQGLSSPVTKSFNRGEC | 3.17 µM (2×) and 2.23 µM (2×) | 
4 | TY24851 (antibody, IgG1, V domains shown, also called non-cleavable antibody TY24851) VH: EVQLVESGGGLVQPGGSLRLSCAASGYSISSGYHWSWIRQAPGKGLEWLARIDWDDDKYYSTSLKSRLTISRDNSKNTLYLQLNSLRAEDTAVYYCARSYVYFDYWGQGTLVTVSS VL: ETLCEPFATSVCRPGGGGSGGSGGGSDIQLTQSPSSLSASVGDRVTITCRASQSVRGRFLAWYQQKPGKAPKLLIYDASNRATGIPSRFSGSGSGTDFTLTISSLQPEDFATYYCQQSSSWPPTFGQGTKVEIKR | 25.8 nM | 
5 | TY24040 (antibody, human IgG1, kappa) heavy: not shown light: DIQLTQSPSSLSASVGDRVTITCRASQSVRGRFLAWYQQKPGKAPKLLIYDASNRATGIPSRFSGSGSGTDFTLTISSLQPEDFATYYCQQSSSWPPTFGQGTKVEIKRTVAAPSVFIFPPSDEQLKSGTASVVCLLNNFYPREAKVQWKVDNALQSGNSQESVTEQDSKDSTYSLSSTLTLSKADYEKHKVYACEVTHQGLSSPVTKSFNRGEC |  | ADCP reporter activity (luciferase), EC50 [2]: 2.04 nM
6 | TY24649-MMP9 (antibody, human IgG1, TY24649 after 24 h with MMP-9; Wild-type human IgG1 Fc; also called TY24649 treated with recombinant human MMP-9) heavy: not shown light: DIQLTQSPSSLSASVGDRVTITCRASQSVRGRFLAWYQQKPGKAPKLLIYDASNRATGIPSRFSGSGSGTDFTLTISSLQPEDFATYYCQQSSSWPPTFGQGTKVEIKRTVAAPSVFIFPPSDEQLKSGTASVVCLLNNFYPREAKVQWKVDNALQSGNSQESVTEQDSKDSTYSLSSTLTLSKADYEKHKVYACEVTHQGLSSPVTKSFNRGEC |  | EC50 [3]: 0.286 nM
7 | TY24149 (antibody, human IgG1, kappa) heavy: not shown light: EVGSYPPCVGFYPYCKTSGRSAGGGGTPLGLAGSGGSDIQLTQSPSSLSASVGDRVTITCRASQSVRGRFLAWYQQKPGKAPKLLIYDASNRATGIPSRFSGSGSGTDFTLTISSLQPEDFATYYCQQSSSWPPTFGQGTKVEIKRTVAAPSVFIFPPSDEQLKSGTASVVCLLNNFYPREAKVQWKVDNALQSGNSQESVTEQDSKDSTYSLSSTLTLSKADYEKHKVYACEVTHQGLSSPVTKSFNRGEC | 123 nM and 122 nM | Masking efficiency (EC50 / EC50 of TY21580) [1]: 356 fold
8 | TY24148 (antibody, human IgG1, kappa) heavy: not shown light: EVGSYVLCAKFPFCITSGRSAGGGGTPLGLAGSGGSDIQLTQSPSSLSASVGDRVTITCRASQSVRGRFLAWYQQKPGKAPKLLIYDASNRATGIPSRFSGSGSGTDFTLTISSLQPEDFATYYCQQSSSWPPTFGQGTKVEIKRTVAAPSVFIFPPSDEQLKSGTASVVCLLNNFYPREAKVQWKVDNALQSGNSQESVTEQDSKDSTYSLSSTLTLSKADYEKHKVYACEVTHQGLSSPVTKSFNRGEC | 150 nM | Masking efficiency (EC50 / EC50 of TY21580) [1]: 436 fold
9 | TY24463 (antibody, human IgG1, kappa) heavy: not shown light: EVGSYTLCEPFATSVCRPSGRGPLGLAGGSDIQLTQSPSSLSASVGDRVTITCRASQSVRGRFLAWYQQKPGKAPKLLIYDASNRATGIPSRFSGSGSGTDFTLTISSLQPEDFATYYCQQSSSWPPTFGQGTKVEIKRTVAAPSVFIFPPSDEQLKSGTASVVCLLNNFYPREAKVQWKVDNALQSGNSQESVTEQDSKDSTYSLSSTLTLSKADYEKHKVYACEVTHQGLSSPVTKSFNRGEC | 996 nM | 
10 | TY24464 (antibody, human IgG1, kappa) heavy: not shown light: EVGSYTLCEPFATSVCRPSGGGPLGLAGGSDIQLTQSPSSLSASVGDRVTITCRASQSVRGRFLAWYQQKPGKAPKLLIYDASNRATGIPSRFSGSGSGTDFTLTISSLQPEDFATYYCQQSSSWPPTFGQGTKVEIKRTVAAPSVFIFPPSDEQLKSGTASVVCLLNNFYPREAKVQWKVDNALQSGNSQESVTEQDSKDSTYSLSSTLTLSKADYEKHKVYACEVTHQGLSSPVTKSFNRGEC | 2140 nM | 

Now from value to binder, other results behind:

Row | EC50 [1] | Binder | further results
11 | 2.33 µM (2×) and 1.2 µM (2×) | TY24465 (antibody, human IgG1, kappa) heavy: not shown light: EVGSYTLCEPFATSVCRPGGGPLGLAGGSDIQLTQSPSSLSASVGDRVTITCRASQSVRGRFLAWYQQKPGKAPKLLIYDASNRATGIPSRFSGSGSGTDFTLTISSLQPEDFATYYCQQSSSWPPTFGQGTKVEIKRTVAAPSVFIFPPSDEQLKSGTASVVCLLNNFYPREAKVQWKVDNALQSGNSQESVTEQDSKDSTYSLSSTLTLSKADYEKHKVYACEVTHQGLSSPVTKSFNRGEC | 
12 | 310 nM | TY24461 (antibody, human IgG1, kappa) heavy: not shown light: EVGSYSSCKAPYPYCKGGGGPLGLAGGSDIQLTQSPSSLSASVGDRVTITCRASQSVRGRFLAWYQQKPGKAPKLLIYDASNRATGIPSRFSGSGSGTDFTLTISSLQPEDFATYYCQQSSSWPPTFGQGTKVEIKRTVAAPSVFIFPPSDEQLKSGTASVVCLLNNFYPREAKVQWKVDNALQSGNSQESVTEQDSKDSTYSLSSTLTLSKADYEKHKVYACEVTHQGLSSPVTKSFNRGEC | 
13 | 314 nM | TY24462 (antibody, human IgG1, kappa) heavy: not shown light: ESSCKAPYPYCKGSGGGPLGLAGGSDIQLTQSPSSLSASVGDRVTITCRASQSVRGRFLAWYQQKPGKAPKLLIYDASNRATGIPSRFSGSGSGTDFTLTISSLQPEDFATYYCQQSSSWPPTFGQGTKVEIKRTVAAPSVFIFPPSDEQLKSGTASVVCLLNNFYPREAKVQWKVDNALQSGNSQESVTEQDSKDSTYSLSSTLTLSKADYEKHKVYACEVTHQGLSSPVTKSFNRGEC | 
14 | 34.9 nM | TY24841 (antibody, V domains shown) VH: EVQLVESGGGLVQPGGSLRLSCAASGYSISSGYHWSWIRQAPGKGLEWLARIDWDDDKYYSTSLKSRLTISRDNSKNTLYLQLNSLRAEDTAVYYCARSYVYFDYWGQGTLVTVSS VL: ETLCEPFATSVCRPGGGGSGGSGGGSDIQLTQSPSSLSASVGDRVTITCRASQSVRGRFLAWYQQKPGKAPKLLIYDASNRATGIPSRFSGSGSGTDFTLTISSLQPEDFATYYCQQSSSWPPTFGQGTKVEIKR | 
15 | 438 nM (2×) and 210 nM (2×) | TY24155 (antibody, human IgG1, kappa) heavy: not shown light: EVGSYSSCKAPYPYCKGSGRSAGGGGTPLGLAGSGGSDIQLTQSPSSLSASVGDRVTITCRASQSVRGRFLAWYQQKPGKAPKLLIYDASNRATGIPSRFSGSGSGTDFTLTISSLQPEDFATYYCQQSSSWPPTFGQGTKVEIKRTVAAPSVFIFPPSDEQLKSGTASVVCLLNNFYPREAKVQWKVDNALQSGNSQESVTEQDSKDSTYSLSSTLTLSKADYEKHKVYACEVTHQGLSSPVTKSFNRGEC | 
